Data: article PMC12421842

Target: T1, HicB (HicB-His) (Neisseria gonorrhoeae FA1090) (UniProt Q5F6D2)
T1 sequence: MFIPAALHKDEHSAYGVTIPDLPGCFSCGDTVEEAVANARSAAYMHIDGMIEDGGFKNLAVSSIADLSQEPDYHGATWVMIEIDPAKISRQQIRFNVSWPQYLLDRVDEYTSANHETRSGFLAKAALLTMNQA
Assay: competition
Conditions: EMSA: 20 mM HEPES pH 7.6, 1 mM EDTA, 10 mM (NH4)2SO4, 1 mM DTT, 0.2% Tween-20, 30 mM KCl, 1.25 ng/uL calf thymus DNA, 30 min at 30 C

TTCACCCTTGCCTGTGCTGCCAAAGCAGCCATCGGCGGTTTTGCTTTCTGTTCCACTTTCCGTCGCGTTACCGCGCCCGGCCGTTAACCGGCATTCTACCCTGCGGAGCCCGGACTTTCCTCCCCGTAT (double strand) [rnpB fragment]
binding: no binding
